Data taken from US20250312438A1 (published 2025).
Substitutions are numbered along the chain they refer to. Numbers in names are those of the source. Read-outs that look alike come from different tables or passages of the source.

Columns and labels:
BJAB cells = BJAB cells (human, UniProt P01903 26-254); test: flow
[1] = molecular target: T1, recombinant HLA-DR (DRA*01:01/DRB1*04:01) with covalently attached Influenza Hemagglutinin (HA) peptide (human;Influenza); test: BLI
[2] = molecular target: T1, recombinant HLA-DR …; test: BLI; remark: listed apart in the source
[3] = molecular target: HLA-DRA*01:01 W168R / HLA-DRB1*04:01 F31V/H33N; test: BLI
[4] = molecular target: HLA-DRA*01:01 No mut. / HLA-DRB1*04:01 F31V/H33N; test: BLI
[5] = molecular target: HLA-DRA*01:01 W168R / HLA-DRB1*04:01 No mut.; test: BLI
[6] = molecular target: HLA-DRA*01:01 W168R / HLA-DRB1*04:01 F31I/H33N; test: BLI
[7] = molecular target: HLA-DRA*01:01 No mut. / HLA-DRB1*04:01 F31I/H33N; test: BLI
[8] = molecular target: T1, recombinant HLA-DR …; test: BLI; remark: listed apart in the source

Sequence of BJAB cells (P01903 whole entry): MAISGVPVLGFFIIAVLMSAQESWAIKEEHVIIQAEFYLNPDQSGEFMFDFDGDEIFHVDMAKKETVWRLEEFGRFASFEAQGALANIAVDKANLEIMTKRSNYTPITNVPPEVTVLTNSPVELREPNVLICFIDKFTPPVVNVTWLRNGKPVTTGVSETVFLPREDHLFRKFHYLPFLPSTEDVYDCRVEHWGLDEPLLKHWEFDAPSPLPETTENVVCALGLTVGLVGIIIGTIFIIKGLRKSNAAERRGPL

B1: V17 (antibody, V domains shown)
VH: QVTLKESGPVLVKPTETLTLTCTVSGFSLTSYGVHWIRQPPGKALEWLAVIWAGGSISYSTSLMSRLTISKDTSKSQVVLTMTNMDPVDTATYYCARAYGDYVHYAMDYWGQGTLVTVSS
VL: DIQMTQSPSSLSASVGDRVTITCRASQEISGYLTWLQQKPGKAPKLLIYAASTLDSGVPSRFSGSGSGTDFTLTISSLQPEDFATYYCLQYTNYPLTFGQGTKLEIK
EC50 (BJAB cells): 5.02 mg/L

B2: V20 (K60 back-mutation) (antibody, V domains shown)
VH: B1 VH
VL: B1 VL with S60K
EC50 (BJAB cells): 2.21 mg/L

B3: V14 with the V71K and F78V mutations in the VH (antibody, V domains shown)
VH: QVQLQESGPGLVKPSETLSLTCTVSGFSLTSYGVHWIRQPPGKGLEWIGVIWAGGSINYNSALMSRVTISKDTSKNQVSLKLSSVTAADTAVYYCARAYGDYVHYAMDYWGQGTLVTVSS
VL: B1 VL
Kd [1]: 206 nM

B4: V19 (R66 back-mutation) (antibody, V domains shown)
VH: B1 VH
VL: B1 VL with G66R
EC50 (BJAB cells): 2.02 mg/L

B5: humanized 44H10 variant V21 (antibody, V domains shown)
VH: B1 VH
VL: B1 VL with S60K, G66R
Kd [2]: 221 nM | Kd [1]: 157 nM

B6: 44H10 (antibody, V domains shown)
VH: QVQLKESGPGLVAPSQSLSITCTVSGFSLTSYGVHWVRQPPGKGLEWLGVIWAGGSINYNSALMSRLSISKDNFKSQVFLKMSSLQTDDTAMYYCARAYGDYVHYAMDYWGQGTSVTASS
VL: DIQMTQSPSSLSASLGQRVSLTCRASQEISGYLTWLQQKPDGTIKRLVYAASTLDSGVPKRFSGSRSGSDYSLTISSLESEDFADYYCLQYTNYPLTFGAGTKLELKR
Kd [3]: 0.2 nM | Kd [4]: 0.4 nM | Kd [5]: 2.8 nM | Kd [6]: 0.2 nM | Kd [7]: 0.5 nM

B7: chimeric human IgG1 anti-HLA-DR 44H10 antibody (antibody, V domains shown)
VH: B6 VH
VL: B6 VL
Kd [2]: 199 nM | Kd [8]: 1.5 nM
